Source: patent US20250313626A1 (HARBOUR BIOMED SHANGHAI, published 2025)
Residue numbers refer to the chain shown, from its start.

T1: Mouse CD200R1-His (mouse, UniProt Q9ES57 26-238, limits assumed)
T1 sequence (looked up): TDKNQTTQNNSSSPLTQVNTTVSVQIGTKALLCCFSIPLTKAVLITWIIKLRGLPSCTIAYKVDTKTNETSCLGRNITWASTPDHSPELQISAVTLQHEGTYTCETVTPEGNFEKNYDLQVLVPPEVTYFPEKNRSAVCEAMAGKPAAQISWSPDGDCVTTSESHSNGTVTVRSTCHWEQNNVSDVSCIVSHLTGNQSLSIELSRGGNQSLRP

T2: human CD200R1a protein (soluble recombinant) (human, UniProt Q8TD46 29-265)
T2 construct: Soluble protein used in BLI; also called human CD200R1 isoform a; not shown: His tag implied by capture on anti-Penta-HIS biosensors
T2 sequence: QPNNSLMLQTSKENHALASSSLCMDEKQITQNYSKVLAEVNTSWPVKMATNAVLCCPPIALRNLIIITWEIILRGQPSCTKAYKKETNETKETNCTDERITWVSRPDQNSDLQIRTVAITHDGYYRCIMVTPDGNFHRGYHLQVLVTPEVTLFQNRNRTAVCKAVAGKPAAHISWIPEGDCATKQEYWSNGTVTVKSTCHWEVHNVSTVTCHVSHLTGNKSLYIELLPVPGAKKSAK

T3: Cyno CD200R1a-His (Cynomolgus macaques, UniProt Q8TD46 25-265 (human entry))
T3 construct: Soluble protein used in BLI; also called Cynomolgus macaques CD200R1a recombinant protein; not shown: His tag
T3 chain: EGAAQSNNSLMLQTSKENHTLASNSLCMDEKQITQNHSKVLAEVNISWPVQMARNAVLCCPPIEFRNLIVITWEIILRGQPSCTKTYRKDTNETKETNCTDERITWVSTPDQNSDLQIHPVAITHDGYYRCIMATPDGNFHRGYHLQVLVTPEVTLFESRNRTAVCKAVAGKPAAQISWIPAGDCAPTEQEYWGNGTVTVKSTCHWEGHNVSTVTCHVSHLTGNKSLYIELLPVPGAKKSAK

T4: human CD200R1 isoform a on CHOK1 cells (CHOK1/hCD200R1a) (human, UniProt Q8TD46 25-348)
T4 construct: also called CHOK1/CD200R1a
T4 sequence: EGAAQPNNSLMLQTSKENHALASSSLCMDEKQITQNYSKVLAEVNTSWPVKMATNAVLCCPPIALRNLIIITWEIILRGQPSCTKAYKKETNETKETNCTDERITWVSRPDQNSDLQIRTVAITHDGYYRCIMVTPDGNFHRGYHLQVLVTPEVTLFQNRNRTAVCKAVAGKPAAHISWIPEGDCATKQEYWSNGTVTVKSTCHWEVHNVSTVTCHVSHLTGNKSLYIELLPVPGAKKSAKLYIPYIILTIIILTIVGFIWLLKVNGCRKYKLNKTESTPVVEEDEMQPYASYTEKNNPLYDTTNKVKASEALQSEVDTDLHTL

B1: PR006480 (antibody, human IgG1, kappa, L234A L235A)
heavy: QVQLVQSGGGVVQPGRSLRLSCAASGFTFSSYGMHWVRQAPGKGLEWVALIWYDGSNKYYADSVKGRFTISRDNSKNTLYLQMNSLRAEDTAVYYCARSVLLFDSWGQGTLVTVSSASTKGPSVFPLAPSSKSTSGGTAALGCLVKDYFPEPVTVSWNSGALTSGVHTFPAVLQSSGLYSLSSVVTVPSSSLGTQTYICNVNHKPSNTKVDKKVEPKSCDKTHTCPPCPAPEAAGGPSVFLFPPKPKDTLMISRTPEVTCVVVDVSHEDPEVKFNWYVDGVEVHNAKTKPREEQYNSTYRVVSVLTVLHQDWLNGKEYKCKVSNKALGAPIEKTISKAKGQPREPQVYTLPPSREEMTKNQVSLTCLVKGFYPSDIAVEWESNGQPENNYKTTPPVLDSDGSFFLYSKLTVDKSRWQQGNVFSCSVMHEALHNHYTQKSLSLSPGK
light: DIQMTQSPPSLSASVGDRVTITCRASQSISSYLNWFQQKAGKAPKLLISATSNLQSGVPSRFSGSGSGTDFTLTISSLQPEDLATYYCQQSYSSPYTFGQGTKVEIKRTVAAPSVFIFPPSDEQLKSGTASVVCLLNNFYPREAKVQWKVDNALQSGNSQESVTEQDSKDSTYSLSSTLTLSKADYEKHKVYACEVTHQGLSSPVTKSFNRGEC
notes: also called PR6480
B2: PR007221 (antibody, human IgG1, kappa)
heavy: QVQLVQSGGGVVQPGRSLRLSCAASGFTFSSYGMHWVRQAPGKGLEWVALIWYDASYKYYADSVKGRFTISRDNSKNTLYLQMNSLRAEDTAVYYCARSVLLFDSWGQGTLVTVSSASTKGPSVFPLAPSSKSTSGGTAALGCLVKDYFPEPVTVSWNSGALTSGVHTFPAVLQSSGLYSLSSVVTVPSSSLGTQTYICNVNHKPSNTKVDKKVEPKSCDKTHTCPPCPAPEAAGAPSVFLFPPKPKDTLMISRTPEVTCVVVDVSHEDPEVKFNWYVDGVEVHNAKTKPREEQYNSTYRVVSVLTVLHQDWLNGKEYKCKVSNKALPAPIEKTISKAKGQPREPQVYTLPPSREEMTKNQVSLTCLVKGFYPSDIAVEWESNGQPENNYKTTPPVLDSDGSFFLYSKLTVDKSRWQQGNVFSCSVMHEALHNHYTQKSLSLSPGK
light: B1 light with M4L, S91T, Y92L
notes: PTM variant of PR006895 (human IgG1)
B3: PR007223 (antibody, human IgG1, kappa)
heavy: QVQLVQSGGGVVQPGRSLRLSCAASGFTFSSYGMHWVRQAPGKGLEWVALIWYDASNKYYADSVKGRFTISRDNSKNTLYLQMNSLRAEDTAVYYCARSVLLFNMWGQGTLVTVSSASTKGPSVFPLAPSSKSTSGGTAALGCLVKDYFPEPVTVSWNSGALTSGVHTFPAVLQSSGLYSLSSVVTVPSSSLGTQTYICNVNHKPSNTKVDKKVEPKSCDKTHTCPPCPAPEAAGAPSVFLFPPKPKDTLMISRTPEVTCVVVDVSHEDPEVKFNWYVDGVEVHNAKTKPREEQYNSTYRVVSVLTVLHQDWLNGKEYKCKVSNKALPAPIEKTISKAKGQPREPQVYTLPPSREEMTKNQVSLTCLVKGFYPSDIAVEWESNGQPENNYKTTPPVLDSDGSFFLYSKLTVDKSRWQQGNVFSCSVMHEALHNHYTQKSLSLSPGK
light: B1 light with M4L, S91T
notes: as for B2
B4: PR005509 (antibody, human IgG1, kappa, L234A L235A, V domains shown)
VH: QVQLVESGGGVVQPGRSLRLSCAASGFTFSSYGFHWVRQAPGKGLEWLGLIWSDGSNKYYADSVKGRFTISRDNSKNTLYLQMNSLRAEDTAVYYCARDRIVGAGFDYWGQGTLVTVSS
VL: not shown
B5: PR005474 (antibody, human IgG1, kappa, L234A L235A, V domains shown)
VH: B4 VH with G26A, F34M, L48V, G49A, S53N, Y59F, Y80F, V102L
VL: not shown
B6: PR007973 (antibody, human IgG1, kappa, V domains shown)
VH: B4 VH with L50I, G55A, A104E
VL: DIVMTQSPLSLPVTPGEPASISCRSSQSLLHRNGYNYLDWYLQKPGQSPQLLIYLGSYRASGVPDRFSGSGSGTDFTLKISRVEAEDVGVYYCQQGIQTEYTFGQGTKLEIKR
notes: PTM variant of PR006839 (human IgG1)
B7: PR002906 (antibody, V domains shown)
VH: QVQLQESGPGLVKPSETLSLTCTVSGYTITSGYDWSWIRQPPGKGLEWIGYINYGGSTNYKPSLGSRVTISVDTSKNQFSLKLSSVTAADTAVYYCARYNEYKSYIYDWYFDFWGQGTLVTVSS
VL: DIQMTQSPSSLSASVGDRVTITCKASKNIRSYLAWYQQKPGKAPKLLIYSGSTLHSGVPSRFSGSGSGTDFTLTISSLQPEDFATYYCQQHHEYPLTFGQGTKVEIKR
notes: also called recombinant IgG1 antibody of huDX182

Key:
Mouse CD200R1-His = biological target: T1, Mouse CD200R1-His; assay: BLI (Octet), antibody captured on anti-human Fc sensor
Protocol: (§1) To determine the binding affinities of the anti-CD200R1 antibodies to CD200R1a proteins of various species (mouse, human, Cynomolgus macaques), bio-layer interferometry (BLI) assays were carried out using an Octet® RED96e instrument. Antibodies were produced as described in Example 3.4 and diluted to 5 μg/mL using freshly prepared 1× kinetic buffer (10× kinetic buffer (Catalog #18-1105, ForteBio) was diluted with PBS(Catalog #E607016-0500, BBI Life Sciences)) and were captured on the surface of anti-human Fc (AHC) Octet biosensors (Catalog #18-5060, ForteBio) to reach capture levels between 0.9-1.2 nm. The biosensors having the captured anti-CD200R1 antibodies were then dipped in wells containing 2-fold serial dilutions of CD200R1a proteins to detect association signals, followed by dissociation steps in wells containing 1× kinetic buffer. The sensorgrams were recorded and the reference signals were subtracted before curve fitting using ForteBio Data Analysis 11.0 software. Association rates (kₒₙ) and dissociation rates (koff) were calculated using a simple one-to-one Langmuir binding model. The equilibrium dissociation constant (KD) was calculated as the ratio of koff/kₒₙ.

[1] = biological target: T2, human CD200R1a protein (soluble …); assay: BLI (Octet), antibody captured on anti-human Fc sensor, soluble CD200R1a as analyte, 1:1 fit
Protocol: as §1

Cyno CD200R1a-His = biological target: T3, Cyno CD200R1a-His; assay: as above
Protocol: as §1

[2] = biological target: T4, human CD200R1 isoform a on CHOK1 cells …; assay: flow cytometry blocking assay: antibody titrated against biotin-labelled human CD200 binding to CHOK1/hCD200R1a cells
Protocol: To study the activity of human anti-CD200R1 antibodies in blocking the binding of human CD200 to its receptor CD200R1a in vitro, CHOK1/hCD200R1a was used to perform cell-level human CD200/human CD200R1a binding and blocking experiments.
In brief, CHOK1/hCD200R1a cells were digested and resuspended in 2% BSA in PBS. […] The cells were placed at 4° C. and incubated for 1 hour in the dark. […] 100 μL/well of pre-cooled PBS containing 2% BSA was added to rinse the cells twice, centrifugation was performed at 500 g, 4° C. for 5 minutes, and the supernatant was discarded. Fluorescent secondary antibody (PE Streptavidin, BD, Cat #: 554061, 1:200) was added at 100 μL/well, and incubation was performed at 4° C. for 30 minutes in the dark. The cells were washed twice with 200 μL/well of pre-cooled PBS, and were centrifuged at 500 g, 4° C. for 5 minutes, and the supernatant was discarded. Finally, 200 μL/well of pre-cooled PBS was used to resuspend the cells, and the fluorescence signal values were read using ACEA Novocyte 3000 flow cytometer. IC50 values were calculated.

| Binder | binding result (Mouse CD200R1-His) | Kd [1] | koff [1] | kon [1] | Kd (Cyno CD200R1a-His) | koff (Cyno CD200R1a-His) | kon (Cyno CD200R1a-His) | Blocking (Max %) [2] | IC50 [2] |
| --- | --- | --- | --- | --- | --- | --- | --- | --- | --- |
| B1 | no binding | 14.3 nM | 0.000476 s⁻¹ | 33300 M⁻¹ s⁻¹ | 104 nM | 0.00713 s⁻¹ | 68500 M⁻¹ s⁻¹ | 63.3% | 0.607 nM |
| B2 | no binding | 4.34 nM | 0.000211 s⁻¹ | 48600 M⁻¹ s⁻¹ | 12.5 nM | 0.000776 s⁻¹ | 62100 M⁻¹ s⁻¹ | – | – |
| B3 | no binding | 2.07 nM | 0.000133 s⁻¹ | 64200 M⁻¹ s⁻¹ | 16.3 nM | 0.0014 s⁻¹ | 86000 M⁻¹ s⁻¹ | – | – |
| B4 | no binding | 7.74 nM | 0.000511 s⁻¹ | 66100 M⁻¹ s⁻¹ | 146 nM | 0.0275 s⁻¹ | 189000 M⁻¹ s⁻¹ | 102% | 0.485 nM |
| B5 | no binding | 16.6 nM | 0.00101 s⁻¹ | 60700 M⁻¹ s⁻¹ | 147 nM | 0.0287 s⁻¹ | 196000 M⁻¹ s⁻¹ | 101% | 0.309 nM |
| B6 | no binding | 1.06 nM | 5.97e-05 s⁻¹ | 56200 M⁻¹ s⁻¹ | 10.2 nM | 0.000151 s⁻¹ | 14900 M⁻¹ s⁻¹ | – | – |
| B7 | – | 39.3 nM | 0.00341 s⁻¹ | 86700 M⁻¹ s⁻¹ | – | – | – | 98.3% | 1.58 nM |
